# Test results published in patent publication US20040087777A1 (NEURALAB, published 2004).
# T1: … analog, Residue 8 = C
# T1 peptide: DAEFRHDCGY
# T2: … analog, Residue 8 = H
# T2 peptide: DAEFRHDHGY
# T3: … analog, Residue 8 = K
# T3 peptide: DAEFRHDKGY
# T4: … analog, Residue 8 = N
# T4 peptide: DAEFRHDNGY
# T5: … analog, Residue 8 = P
# T5 peptide: DAEFRHDPGY
# T6: … analog, Residue 8 = R
# T6 peptide: DAEFRHDRGY
# T7: … analog, Residue 1 = A
# T7 peptide: AAEFRHDSGY
# T8: … analog, Residue 1 = C
# T8 peptide: CAEFRHDSGY
# T9: … analog, Residue 1 = E
# T9 peptide: EAEFRHDSGY
# T10: … analog, Residue 1 = F
# T10 peptide: FAEFRHDSGY
# T11: … analog, Residue 1 = G
# T11 peptide: GAEFRHDSGY
# T12: … analog, Residue 1 = H
# T12 peptide: HAEFRHDSGY
# T13: … analog, Residue 1 = I
# T13 peptide: IAEFRHDSGY
# T14: … analog, Residue 1 = K
# T14 peptide: KAEFRHDSGY
# T15: … analog, Residue 1 = L
# T15 peptide: LAEFRHDSGY
# T16: … analog, Residue 1 = M
# T16 peptide: MAEFRHDSGY
# T17: … analog, Residue 1 = N
# T17 peptide: NAEFRHDSGY
# T18: … analog, Residue 1 = P
# T18 peptide: PAEFRHDSGY
# T19: … analog, Residue 1 = R
# T19 peptide: RAEFRHDSGY
# T20: … analog, Residue 1 = S
# T20 peptide: SAEFRHDSGY
# T21: … analog, Residue 1 = W
# T21 peptide: WAEFRHDSGY
# T22: … analog, Residue 1 = Y
# T22 peptide: YAEFRHDSGY
# T23: … analog, Residue 2 = C
# T23 peptide: DCEFRHDSGY
# T24: … analog, Residue 2 = D
# T24 peptide: DDEFRHDSGY
# T25: … analog, Residue 2 = F
# T25 peptide: DFEFRHDSGY
# T26: … analog, Residue 2 = G
# T26 peptide: DGEFRHDSGY
# T27: … analog, Residue 2 = H
# T27 peptide: DHEFRHDSGY
# T28: … analog, Residue 2 = I
# T28 peptide: DIEFRHDSGY
# T29: … analog, Residue 2 = K
# T29 peptide: DKEFRHDSGY
# T30: … analog, Residue 2 = N
# T30 peptide: DNEFRHDSGY
# T31: … analog, Residue 2 = Q
# T31 peptide: DQEFRHDSGY
# T32: … analog, Residue 2 = R
# T32 peptide: DREFRHDSGY
# T33: … analog, Residue 2 = T
# T33 peptide: DTEFRHDSGY
# T34: … analog, Residue 3 = C
# T34 peptide: DACFRHDSGY
# T35: … analog, Residue 3 = D
# T35 peptide: DADFRHDSGY
# T36: … analog, Residue 3 = H
# T36 peptide: DAHFRHDSGY
# T37: … analog, Residue 3 = I
# T37 peptide: DAIFRHDSGY
# T38: … analog, Residue 3 = K
# T38 peptide: DAKFRHDSGY
# T39: … analog, Residue 3 = L
# T39 peptide: DALFRHDSGY
# T40: … analog, Residue 3 = M
# T40 peptide: DAMFRHDSGY
# T41: … analog, Residue 3 = N
# T41 peptide: DANFRHDSGY
# T42: … analog, Residue 3 = P
# T42 peptide: DAPFRHDSGY
# T43: … analog, Residue 3 = Q
# T43 peptide: DAQFRHDSGY
# T44: … analog, Residue 3 = W
# T44 peptide: DAWFRHDSGY
# T45: … analog, Residue 3 = Y
# T45 peptide: DAYFRHDSGY
# Experiments:
# [1] = biological target: T46, beta amyloid peptide (Aβ) (human, UniProt P05067 672-713, limits assumed); assay: BIAcore
# T46 construct: also called A-beta; β-amyloid peptide
# [2] = biological target: T46, beta amyloid peptide (Aβ); assay: average of ELISA and BIAcore results
# [3] = biological target: T46, beta amyloid peptide (Aβ); assay: ELISA competitive binding assay with biotinylated 3D6
# … analog, Residue 8 = C = biological target: T1, … analog, Residue 8 = C; assay: rNET
# … analog, Residue 8 = H = biological target: T2, … analog, Residue 8 = H; assay: rNET
# … analog, Residue 8 = K = biological target: T3, … analog, Residue 8 = K; assay: rNET
# … analog, Residue 8 = N = biological target: T4, … analog, Residue 8 = N; assay: rNET
# … analog, Residue 8 = P = biological target: T5, … analog, Residue 8 = P; assay: rNET
# … analog, Residue 8 = R = biological target: T6, … analog, Residue 8 = R; assay: rNET
# … analog, Residue 1 = A = biological target: T7, … analog, Residue 1 = A; assay: rNET
# … analog, Residue 1 = C = biological target: T8, … analog, Residue 1 = C; assay: rNET
# … analog, Residue 1 = E = biological target: T9, … analog, Residue 1 = E; assay: rNET
# … analog, Residue 1 = F = biological target: T10, … analog, Residue 1 = F; assay: rNET
# … analog, Residue 1 = G = biological target: T11, … analog, Residue 1 = G; assay: rNET
# … analog, Residue 1 = H = biological target: T12, … analog, Residue 1 = H; assay: rNET
# … analog, Residue 1 = I = biological target: T13, … analog, Residue 1 = I; assay: rNET
# … analog, Residue 1 = K = biological target: T14, … analog, Residue 1 = K; assay: rNET
# … analog, Residue 1 = L = biological target: T15, … analog, Residue 1 = L; assay: rNET
# … analog, Residue 1 = M = biological target: T16, … analog, Residue 1 = M; assay: rNET
# … analog, Residue 1 = N = biological target: T17, … analog, Residue 1 = N; assay: rNET
# … analog, Residue 1 = P = biological target: T18, … analog, Residue 1 = P; assay: rNET
# … analog, Residue 1 = R = biological target: T19, … analog, Residue 1 = R; assay: rNET
# … analog, Residue 1 = S = biological target: T20, … analog, Residue 1 = S; assay: rNET
# … analog, Residue 1 = W = biological target: T21, … analog, Residue 1 = W; assay: rNET
# … analog, Residue 1 = Y = biological target: T22, … analog, Residue 1 = Y; assay: rNET
# … analog, Residue 2 = C = biological target: T23, … analog, Residue 2 = C; assay: rNET
# … analog, Residue 2 = D = biological target: T24, … analog, Residue 2 = D; assay: rNET
# … analog, Residue 2 = F = biological target: T25, … analog, Residue 2 = F; assay: rNET
# … analog, Residue 2 = G = biological target: T26, … analog, Residue 2 = G; assay: rNET
# … analog, Residue 2 = H = biological target: T27, … analog, Residue 2 = H; assay: rNET
# … analog, Residue 2 = I = biological target: T28, … analog, Residue 2 = I; assay: rNET
# … analog, Residue 2 = K = biological target: T29, … analog, Residue 2 = K; assay: rNET
# … analog, Residue 2 = N = biological target: T30, … analog, Residue 2 = N; assay: rNET
# … analog, Residue 2 = Q = biological target: T31, … analog, Residue 2 = Q; assay: rNET
# … analog, Residue 2 = R = biological target: T32, … analog, Residue 2 = R; assay: rNET
# … analog, Residue 2 = T = biological target: T33, … analog, Residue 2 = T; assay: rNET
# … analog, Residue 3 = C = biological target: T34, … analog, Residue 3 = C; assay: rNET
# … analog, Residue 3 = D = biological target: T35, … analog, Residue 3 = D; assay: rNET
# … analog, Residue 3 = H = biological target: T36, … analog, Residue 3 = H; assay: rNET
# … analog, Residue 3 = I = biological target: T37, … analog, Residue 3 = I; assay: rNET
# … analog, Residue 3 = K = biological target: T38, … analog, Residue 3 = K; assay: rNET
# … analog, Residue 3 = L = biological target: T39, … analog, Residue 3 = L; assay: rNET
# … analog, Residue 3 = M = biological target: T40, … analog, Residue 3 = M; assay: rNET
# … analog, Residue 3 = N = biological target: T41, … analog, Residue 3 = N; assay: rNET
# … analog, Residue 3 = P = biological target: T42, … analog, Residue 3 = P; assay: rNET
# … analog, Residue 3 = Q = biological target: T43, … analog, Residue 3 = Q; assay: rNET
# … analog, Residue 3 = W = biological target: T44, … analog, Residue 3 = W; assay: rNET
# … analog, Residue 3 = Y = biological target: T45, … analog, Residue 3 = Y; assay: rNET
# 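Wherever OD is given: antibody binding measured against single-substituted peptide analogs, each epitope position replaced by every one of 19 non-native amino acids, compared with binding to the native Aβ peptide.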
binder,measurement,setting,value
"humanized 3D6 version 1 (antibody, V domains shown, Human constant regions (light chain vector pCMV-cK); also called humanized 3D6v1; h3D6v1) VH: EVQLLESGGGLVQPGGSLRLSCAASGFTFSNYGMSWVRQAPGKGLEWVASIRSGGGRTYYSDNVKGRFTISRDNAKNSLYLQMNSLRAEDTALYYCVRYDHYSGSSDYWGQGTLVTVSS VL: YVVMTQSPLSLPVTPGEPASISCKSSQSLLDSDGKTYLNWLLQKPGQSPQRLIYLVSKLDSGVPDRFSGSGSGTDFTLKISRVEAEDVGVYYCWQGTHFPRTFGQGTKVEIK",Kd,[1],2.06 nM
same,koff,[1],0.000382 s⁻¹
same,kon,[1],185000 M⁻¹ s⁻¹
same,fold loss of binding affinity against 3D6,[2],~3 fold
same,fold less binding affinity than 3D6,[3],~6 fold
"humanized 3D6 version 2 (antibody, V domains shown, also called humanized 3D6v2; h3D6v2) VH: EVQLLESGGGLVQPGGSLRLSCAASGFTFSNYGMSWVRQAPGKGLEWVASIRSGGGRTYYSDNVKGRFTISRDNSKNTLYLQMNSLRAEDTAVYYCVRYDHYSGSSDYWGQGTLVTVSS VL: DVVMTQSPLSLPVTPGEPASISCKSSQSLLDSDGKTYLNWLLQKPGQSPQRLIYLVSKLDSGVPDRFSGSGSGTDFTLKISRVEAEDVGVYYCWQGTHFPRTFGQGTKVEIK",OD,"… analog, Residue 8 = C",0.7 OD
same,OD,"… analog, Residue 8 = H",0.683 OD
same,OD,"… analog, Residue 8 = K",0.698 OD
same,OD,"… analog, Residue 8 = N",0.7 OD
same,OD,"… analog, Residue 8 = P",0.694 OD
same,OD,"… analog, Residue 8 = R",0.699 OD
same,OD,"… analog, Residue 1 = A",0.643 OD
same,OD,"… analog, Residue 1 = C",0.628 OD
same,OD,"… analog, Residue 1 = E",0.7 OD
same,OD,"… analog, Residue 1 = F",0.062 OD
same,OD,"… analog, Residue 1 = G",0.738 OD
same,OD,"… analog, Residue 1 = H",0.117 OD
same,OD,"… analog, Residue 1 = I",0.118 OD
same,OD,"… analog, Residue 1 = K",0.057 OD
same,OD,"… analog, Residue 1 = L",0.148 OD
same,OD,"… analog, Residue 1 = M",0.072 OD
same,OD,"… analog, Residue 1 = N",0.757 OD
same,OD,"… analog, Residue 1 = P",0.144 OD
same,OD,"… analog, Residue 1 = R",0.155 OD
same,OD,"… analog, Residue 1 = S",0.762 OD
same,OD,"… analog, Residue 1 = W",0.07 OD
same,OD,"… analog, Residue 1 = Y",0.498 OD
same,OD,"… analog, Residue 2 = C",0.694 OD
same,OD,"… analog, Residue 2 = D",0.222 OD
same,OD,"… analog, Residue 2 = F",0.717 OD
same,OD,"… analog, Residue 2 = G",0.72 OD
same,OD,"… analog, Residue 2 = H",0.741 OD
same,OD,"… analog, Residue 2 = I",0.722 OD
same,OD,"… analog, Residue 2 = K",0.722 OD
same,OD,"… analog, Residue 2 = N",0.735 OD
same,OD,"… analog, Residue 2 = Q",0.756 OD
same,OD,"… analog, Residue 2 = R",0.719 OD
same,OD,"… analog, Residue 2 = T",0.712 OD
same,OD,"… analog, Residue 3 = C",0.41 OD
same,OD,"… analog, Residue 3 = D",0.027 OD
same,OD,"… analog, Residue 3 = H",0.02 OD
same,OD,"… analog, Residue 3 = I",0.024 OD
same,OD,"… analog, Residue 3 = K",0.09 OD
same,OD,"… analog, Residue 3 = L",0.026 OD
same,OD,"… analog, Residue 3 = M",0.027 OD
same,OD,"… analog, Residue 3 = N",0.032 OD
same,OD,"… analog, Residue 3 = P",0.02 OD
same,OD,"… analog, Residue 3 = Q",0.406 OD
same,OD,"… analog, Residue 3 = W",0.304 OD
same,OD,"… analog, Residue 3 = Y",0.02 OD
same,Kd,[1],2.24 nM
